The values that follow come from US20200095340A1.

Numbering of substitutions follows the chain as printed. Names and notes keep the numbering of the source.

B1: anti-DLL3 trispecific protein, DLL3 binder 2E02 (protein, part only; not given: anti-CD3 fragment and anti-albumin domain, part only)
chain, part: EVQLVESGGGLVQPGGSLTLSCVASGSTSAINAMGWYRRAPGKQRELVAGISSDGSKVYVDSVKGRFTISRDNAKNSVYLQMNSLRAEDTAVYYCYYFRTVSGSSQRYWGQGTLVTVSSGGGGSGGGSGGGGSGGGSHHHHHH
B2: anti-DLL3 trispecific protein, DLL3 binder 3A011 (protein, part only; not given: anti-CD3 fragment and anti-albumin domain, part only)
chain, part: EVQLVESGGGLVQPGGSLTLSCAASGSSVSFLSLAWYRQAPGKKRELVAGISTDGSTDYIDSVKGRFTISRDNAKNSVYLQMNSLRAEDTAVYYCYAYRWRTRYTYWGQGTLVTVSSGGGGSGGGSGGGGSGGGSHHHHHH
B3: anti-DLL3 trispecific protein, DLL3 binder 3A02 (protein, part only; not given: CD3 binder and albumin binder, part only)
chain, part: B2 chain, part with T53A, D58A
B4: anti-DLL3 trispecific protein, DLL3 binder 1F08 (protein, part only; not given: anti-CD3 fragment and anti-albumin sdAb, part only)
chain, part: B1 chain, part with A30S, G35A, V60K, T100N, Q106M
B5: anti-DLL3 trispecific protein, DLL3 binder 1C08 (protein, part only; not given: CD3 fragment and albumin sdAb, part only)
chain, part: B1 chain, part with A30R, V48P, V60A, D61V, S105P, Q106M
B6: anti-DLL3 trispecific protein, DLL3 binder 1G06 (protein, part only; not given: anti-CD3 fragment and anti-albumin sdAb, part only)
chain, part: B1 chain, part with A30S, M34I, V60A, D61V, T100K, Q106A
B7: anti-DLL3 trispecific protein, DLL3 binder 1F09 (protein, part only; not given: CD3 binder and albumin binder, part only)
chain, part: B1 chain, part with S27N, A30S, D54N, V60A, S102T, Q106M
B8: anti-DLL3 trispecific protein, DLL3 binder 3D09 (protein, part only; not given: anti-CD3 fragment and anti-albumin domain, part only)
chain, part: B2 chain, part with F31R, L34M, T53A, D54N, D58T, R101T, T105R
B9: anti-DLL3 trispecific protein, DLL3 binder 4A04 (protein, part only; not given: CD3 binder and albumin binder, part only)
chain, part: B2 chain, part with S28R, L34M, T53A, D54R, R101S
B10: anti-DLL3 trispecific protein, DLL3 binder 4D03 (protein, part only; not given: anti-CD3 fragment and anti-albumin domain, part only)
chain, part: B2 chain, part with S30R, L34M, T53A, D54T, R101T, T102R
B11: anti-DLL3 trispecific protein, DLL3 binder 4D02 (protein, part only; not given: CD3 fragment and albumin sdAb, part only)
chain, part: B2 chain, part with S28K, L34M, T53A, D54R, R99Q, R101T
B12: anti-DLL3 trispecific protein, DLL3 binder 4H05 (protein, part only; not given: anti-CD3 fragment and anti-albumin sdAb, part only)
chain, part: B2 chain, part with F31R, L34M, T53A, D54R, R101T, Y104S
B13: anti-DLL3 trispecific protein, DLL3 binder 1C03 (protein, part only; not given: CD3 fragment and albumin sdAb, part only)
chain, part: B1 chain, part with A30S, G35A, G55N, V60A, S102G, Q106M
B14: anti-DLL3 trispecific protein, DLL3 binder 2E010 (protein, part only; not given: anti-CD3 and anti-albumin domains, part only)
chain, part: B1 chain, part with A30S, G35A, V60A, R99H, Q106M
B15: anti-DLL3 trispecific protein, DLL3 binder 2A04 (protein, part only; not given: CD3 binder and albumin binder, part only)
chain, part: B1 chain, part with A30S, G35A, V60T, V101T, Q106M
B16: anti-DLL3 trispecific protein, DLL3 binder 2C04 (protein, part only; not given: CD3 fragment and albumin sdAb, part only)
chain, part: B1 chain, part with A30S, I31R, V58L, V60A, S102L, Q106M
B17: anti-DLL3 trispecific protein, DLL3 binder 2E05-M106Q (protein, part only; not given: CD3 binder and albumin binder, part only)
chain, part: B1 chain, part with T28P, A30S, M34Y, V60S, R107S
B18: anti-DLL3 trispecific protein, DLL3 binder 2F11 (protein, part only; not given: anti-CD3 and anti-albumin domains, part only)
chain, part: B1 chain, part with T28V, A30S, V60K, Q106M, R107G
B19: anti-DLL3 trispecific protein, DLL3 binder 2E05-M106Y (protein, part only; not given: CD3 binder and albumin binder, part only)
chain, part: B1 chain, part with T28P, A30S, M34Y, V60S, Q106Y, R107S
B20: anti-DLL3 trispecific protein, DLL3 binder 2E011 (protein, part only; not given: anti-CD3 fragment and anti-albumin sdAb, part only)
chain, part: B1 chain, part with A30S, M34I, K57S, V60A, T100R, Q106M
B21: anti-DLL3 trispecific protein, DLL3 binder 4D011 (protein, part only; not given: CD3 binder and albumin binder, part only)
chain, part: B2 chain, part with S30R, L34M, T53V
B22: anti-DLL3 trispecific protein, DLL3 binder 4E02 (protein, part only; not given: anti-CD3 and anti-albumin domains, part only)
chain, part: B2 chain, part with S28Q, L34M, T53A, D58V, R101S
B23: anti-DLL3 trispecific protein, DLL3 binder 3H06 (protein, part only; not given: CD3 fragment and albumin sdAb, part only)
chain, part: B2 chain, part with F31Q, L34M, T53A, I60F, R101T, Y104G
B24: anti-DLL3 trispecific protein, DLL3 binder 3H011 (protein, part only; not given: CD3 binder and albumin binder, part only)
chain, part: B2 chain, part with S30K, L34M, T53A, D58V, R101P
B25: anti-DLL3 trispecific protein, DLL3 binder 3D07 (protein, part only; not given: anti-CD3 and anti-albumin domains, part only)
chain, part: B2 chain, part with S30R, L34M, T53A, R99S, R101T
B26: anti-DLL3 trispecific protein, DLL3 binder 4C06 (protein, part only; not given: anti-CD3 fragment and anti-albumin sdAb, part only)
chain, part: B2 chain, part with G26N, F31K, L34M, T53A, D58A, R101S
B27: anti-DLL3 trispecific protein, DLL3 binder 4B011 (protein, part only; not given: CD3 binder and albumin binder, part only)
chain, part: B2 chain, part with S30T, L34M, T53A, D58V, R101T, Y104G
B28: anti-DLL3 trispecific protein, DLL3 binder 4H11-M34L (protein, part only; not given: anti-CD3 and anti-albumin domains, part only)
chain, part: B2 chain, part with F31R, T53V, R101T, Y104L
B29: anti-DLL3 trispecific protein, DLL3 binder 4D09-M34L (protein, part only; not given: anti-CD3 fragment and anti-albumin sdAb, part only)
chain, part: B2 chain, part with S30K, T53A, D61L, R99E, R101T
B30: anti-DLL3 trispecific protein, DLL3 binder 4H04 (protein, part only; not given: anti-CD3 fragment and anti-albumin sdAb, part only)
chain, part: B2 chain, part with S30K, L34M, I51V, T53A, R99E, R101T
B31: anti-DLL3 trispecific protein, DLL3 binder 4B07 (protein, part only; not given: anti-CD3 fragment and anti-albumin sdAb, part only)
chain, part: B2 chain, part with S30G, L34M, T53A, D58V, R101T
B32: anti-DLL3 trispecific protein, DLL3 binder 2E01 (protein, part only; not given: anti-CD3 and anti-albumin domains, part only)
chain, part: EVQLVESGGGLVQPGGSLTLSCVASGSTSSINAMGWYRRAPFKQGELPAGISPDGTKAYADSAKVRFTISRDNAKNSVYLQMNSLRAEDTAVYYCYYFHTVCGTSMGYWGQGTLVTVSSGGGGSGGGSGGGGSGGGSHHHHHH

What is called Kd is a measure of binding affinity in units of concentration. Read a low Kd as a tighter complex.

Sequence of human DLL3 on DMS-153 cells (human) (Q9NYJ7 27-618 limits assumed): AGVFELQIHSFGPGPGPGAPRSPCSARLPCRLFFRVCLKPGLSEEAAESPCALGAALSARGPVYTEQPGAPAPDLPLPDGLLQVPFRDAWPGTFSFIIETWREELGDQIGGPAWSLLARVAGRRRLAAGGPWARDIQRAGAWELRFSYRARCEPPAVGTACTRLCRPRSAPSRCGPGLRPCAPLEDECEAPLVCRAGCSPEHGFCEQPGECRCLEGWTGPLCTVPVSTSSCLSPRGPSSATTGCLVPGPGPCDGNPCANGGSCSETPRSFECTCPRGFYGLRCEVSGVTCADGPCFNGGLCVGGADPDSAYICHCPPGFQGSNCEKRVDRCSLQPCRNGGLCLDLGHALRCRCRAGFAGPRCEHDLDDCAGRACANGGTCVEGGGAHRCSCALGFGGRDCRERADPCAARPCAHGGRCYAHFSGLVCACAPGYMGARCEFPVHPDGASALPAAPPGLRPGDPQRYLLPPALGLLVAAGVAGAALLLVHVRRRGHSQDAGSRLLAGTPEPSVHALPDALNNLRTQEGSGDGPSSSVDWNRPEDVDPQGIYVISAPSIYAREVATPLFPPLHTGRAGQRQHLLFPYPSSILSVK

For the first experiment, the target named is cynomolgus DLL3 protein (cynomolgus). In words: Octet, single concentration of trispecific (60 nM), cynomolgus DLL3.
Sequence of cynomolgus DLL3 protein (cynomolgus) (chain, as listed by the source): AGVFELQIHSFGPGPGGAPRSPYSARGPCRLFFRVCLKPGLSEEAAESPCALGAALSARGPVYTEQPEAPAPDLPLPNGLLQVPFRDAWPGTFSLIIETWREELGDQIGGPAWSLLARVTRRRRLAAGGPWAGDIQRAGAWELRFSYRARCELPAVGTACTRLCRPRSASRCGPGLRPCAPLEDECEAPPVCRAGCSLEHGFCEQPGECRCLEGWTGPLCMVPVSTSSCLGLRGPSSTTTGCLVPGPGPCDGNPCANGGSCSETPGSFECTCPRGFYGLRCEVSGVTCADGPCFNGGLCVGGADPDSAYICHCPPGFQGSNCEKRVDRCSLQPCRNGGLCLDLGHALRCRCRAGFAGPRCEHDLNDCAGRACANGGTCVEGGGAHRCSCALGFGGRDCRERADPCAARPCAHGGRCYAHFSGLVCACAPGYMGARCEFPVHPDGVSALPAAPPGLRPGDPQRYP
On to B1, for which the dissociation constant Kd was determined as 3.4 nM.

With B2, the equilibrium dissociation constant (Kd) stood at 8.8 nM.

In turn, B3 displayed a Kd of 9.5 nM.

The target in the next experiment is biotinylated human DLL3 protein expressed as a human IgG1 fusion protein (human) (UniProt Q9NYJ7). Put plainly: Octet, biotinylated human DLL3-IgG1 fusion on streptavidin tips, single 50 nM, conditioned medium (relative KD).
Sequence of biotinylated human DLL3 protein expressed as a human IgG1 fusion protein (human) (Q9NYJ7 27-492): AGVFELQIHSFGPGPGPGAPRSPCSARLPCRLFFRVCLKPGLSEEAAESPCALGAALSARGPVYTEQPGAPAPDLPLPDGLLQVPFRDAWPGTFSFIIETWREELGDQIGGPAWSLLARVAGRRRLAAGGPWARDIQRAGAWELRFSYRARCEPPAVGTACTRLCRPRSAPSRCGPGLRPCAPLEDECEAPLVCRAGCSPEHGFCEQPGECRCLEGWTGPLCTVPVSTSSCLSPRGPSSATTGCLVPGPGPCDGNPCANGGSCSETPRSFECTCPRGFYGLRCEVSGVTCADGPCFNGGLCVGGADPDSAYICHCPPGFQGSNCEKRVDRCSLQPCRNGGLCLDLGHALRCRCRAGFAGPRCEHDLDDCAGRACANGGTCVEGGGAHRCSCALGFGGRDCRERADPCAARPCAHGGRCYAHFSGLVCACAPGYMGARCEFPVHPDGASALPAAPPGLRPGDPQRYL
Take B4: the dissociation constant Kd was 31 nM.

B5 registered a Kd of 25 nM.

The molecule B6 returned a dissociation constant (Kd) of 26 nM.

Molecule B7 came in with a Kd of 35 nM.

With B8, the Kd is 32 nM.

In turn, B9 returned an equilibrium dissociation constant (Kd) of 35 nM.

For B10, the Kd was 26 nM.

Consider B11, for which the Kd was 30 nM.

For B12, the Kd turned out to be 64 nM.

The next experiment has as its target human DLL3 on DMS-153 cells (human) (UniProt Q9NYJ7). In words: cell-based or functional assay.
The molecule B1 came in with a DMS-153 TDCC EC50 (conditioned medium, human T cells) of 0.059 nM and a TDCC EC50 (CHO expressed, purified protein; method of Example 2, DMS-153 cells) of 0.12 nM.

Take B13: the DMS-153 TDCC EC50 (conditioned medium, human T cells) was found to be 0.096 nM.

Molecule B14 yielded a DMS-153 TDCC EC50 (conditioned medium, human T cells) of 0.031 nM.

Take B15: the DMS-153 TDCC EC50 (conditioned medium, human T cells) worked out at 0.081 nM.

The molecule B16 displayed a TDCC EC50 (CHO expressed, purified protein; method of Example 2, DMS-153 cells) of 0.043 nM.

B17 showed a TDCC EC50 (CHO expressed, purified protein; method of Example 2, DMS-153 cells) of 0.041 nM.

B18 displayed a DMS-153 TDCC EC50 (conditioned medium, human T cells) of 0.049 nM.

B19 returned a TDCC EC50 (CHO expressed, purified protein; method of Example 2, DMS-153 cells) of 0.063 nM.

B20 returned a DMS-153 TDCC EC50 (conditioned medium, human T cells) of 0.19 nM.

For B21, the TDCC EC50 (CHO expressed, purified protein; method of Example 2, DMS-153 cells) was determined as 0.098 nM.

In turn, B22 displayed a DMS-153 TDCC EC50 (conditioned medium, human T cells) of 0.041 nM.

B23 had a DMS-153 TDCC EC50 (conditioned medium, human T cells) of 0.12 nM.

Molecule B24 displayed a DMS-153 TDCC EC50 (conditioned medium, human T cells) of 0.12 nM.

On to B25, for which the DMS-153 TDCC EC50 (conditioned medium, human T cells) stood at 0.061 nM.

B26 returned a DMS-153 TDCC EC50 (conditioned medium, human T cells) of 0.068 nM.

Consider B27, for which the DMS-153 TDCC EC50 (conditioned medium, human T cells) was determined as 0.048 nM.

B28 gave a TDCC EC50 (CHO expressed, purified protein; method of Example 2, DMS-153 cells) of 0.13 nM.

B29: the TDCC EC50 (CHO expressed, purified protein; method of Example 2, DMS-153 cells) stood at 0.054 nM.

With B30, the DMS-153 TDCC EC50 (conditioned medium, human T cells) came out at 0.051 nM.

Regarding B31, the DMS-153 TDCC EC50 (conditioned medium, human T cells) came to 0.067 nM.

B32 gave a DMS-153 TDCC EC50 (conditioned medium, human T cells) of 0.033 nM.

The target of the next experiment is biotinylated human DLL3 protein expressed as a human IgG1 fusion protein (human) (UniProt Q9NYJ7). In words: Octet, several concentrations of trispecific (60, 20, 6.67, 2.22 nM), human DLL3. For orientation: In BLI a coated tip is dipped into the sample, and binding shifts an interference pattern.
The molecule B1 yielded a dissociation constant (Kd) of 4.4 nM.

B2 showed a dissociation constant (Kd) of 7.3 nM.

The molecule B3 yielded a dissociation constant Kd of 7.8 nM.
